The DeepSol protein solubility set

Assay: soluble on expression in E. coli; label from the status in PepcDB or PDB records

Sequence | soluble on expression in E. coli
MEIERKFLVLNDDFKAKATAVHNIIQAYLVADERCTVRIRLCNDEAYLTIKGKTNEGGLSRSEYEYSVPFEEAKEMLTLCLPGYIMKQRYCVPHKGHVWEVDVFEGRHKGLVIAEVELATEDESIELPDWIGNEVTGDKRYYNSFIAGIQK | soluble
MNVMRHSWLAVAGIAGLLAFPPVDACTLWGAAGTASMEGSLLAKNRDWKPDHAQSLRLLHPEHGYAYLGLYADNGSEPGIKAGVNQKGLAVVAAEASSLPRALRADSARHGVLTRLLRDYGSLDEVASAADKLFAQARPVFLLLADAGGLMQVEIGQHGRYRLIRQQSGTLAHTNHYADTSLLDGAQTIGPSSQARLERIRFLLDQHPAHTLSEFERLSRDRHDGPDNSLWRSGREHTLAGWRIALPAGAPPRLQLTLANPGRAERDGDYALDSAFWAQPARTLLPKLAAALEHHHHHH | soluble
TFGEEESEACKKAFDLSPFPLLSKQKEAVFTAIESSISAIIGGAGTGKTTVLHAVLTAFEALGYVSDASLCPDKTTTNHNIKTMALSCRAAKRMRDCINKSSDGSRRERQISATSIAQFIHQTVIEDAEGKYLVVIDEASMLDVATMYNIITNIHPNVRILLVGDHYQLPPI | not soluble
MGSDKIHHHHHHMDRIQEMTLFAALAGQTSFTGVARHVGLSTATVTRAVASLESRLGILLVVRTTRNMRLTKAGQRFAEDCRRLLADLSEAENAAAGVHALPAGTLTVTAPQMFGALHVTPVLTRFLSEYPAVDIRAILVDRVVSMLDEGVDVAVRIGALRDSSLTAIRVGSVRRMVCASPVYLTQHGTPRHPDDLQQHATISTSAPERPPHWAFRVDDQDYSVNVASRLSLTSFQASINAALQHWGLTQVPHYQIREHLHNGRLVCVLEDFEIAPEPVHVVYSEGRRGSSRVRSFVDFCVSALREDLQFEAAG | not soluble
MVILLQFYKEENFKKTEIGEIPEDWEVRELKDILEVIRNGLTAKQNKDKIGYPITRIETISDSKIDITKLGYVEDIKQEDIAKYRLIIGDILFSHINSEEHIGKVAIYEGKPEFLLHGMNLLLLRPNKNKIEPYYLLYLLRHFKQKNIFKYIAKRAVNQSSINQTQLKHLKIPLPPLEEQKQIAKILSDFDNLIGTINKQIEVLNKAKKGMMKKLFTKGVFEHKSFKKSEIGEIPEDWEVVELGNEKYFKIIMGQSPPSSSYNKEGEGVPFLQGKAEFGNIYPNPVLYTNKPLKVVDDEDILISVRAPVGDVNIAPFKLCIGRGLAGIKSNKEKVDNFFVFYYLSYIKPKIEYLGGGAVFKAITKKDLESIKIPLPPLEEQKAIAKRLKAIDDLIEIKRKEKEQIEKAKKKIMNLLLTGKIRVKT | soluble
MQEVPPDFEDVHIAEARVDVPSTWRDQIVNTNAVATETHPLKCAEVETQTGSKDNQGTQTDDAGGGRPPSPSKVQASGVADFMAKVEGMVAGELVKATEEHEVLEPFTRAADDEQEPATCIHYLSPFQQDAAANQDLNAT | soluble
MAAEKKVFVIFDHQEQRHDQPWPSYHIEVPRRLDAILERLNTTKLLTDPRIEHIPRREAEESEILAVHTKRYVDDVKSTETMTVEQQESFCTKYEDIYVNSATWHRAKLAAGASIDLMTSVMAAKRPGIAFIRPPGHHAMPDEGCGFCIFNNVAIAAKAAIQNGQKVLIVDYDVHAGNGTQECVEQMGEGNVQLISIHRYENGHFWPNMPQTGIYHNYKNTINLPLNTIGLTDADYHALFTHIILPTIHAFQPDLLLVSSGFDASIGDPEGSMQVTPAGFATMIRMLIDTGIPVAALLEGGYFLDALAADSEWVLRALLGEEIPRIRVEKIHSAIADTIGRVVKRYEGSCPFFKKVQELRGILGCRVAEEDQQEEATDYTGERTVHPPYETRGIYTPFTEQKVAEFKDQLESILASYTTPPDFSAETEAFHSAIAPHSSEINDFYFGVHEDKILLGTSPAVRLFFELLFTAPYDPKHTIKLYGKVKPEDFGKIELDSRSLGEMKNISIFNNLPIFQL | not soluble
MLKQVEIFTDGSCLGNPGPGGYGAILRYRGREKTFSAGYTRTTNNRMELMAAIVALEALKEHCEVILSTDSQYVRQGITQWIHNWKKRGWKTADKKPVKNVDLWQRLDAALGQHQIKWEWVKGHAGHPENERCNELARAAAMNPTLEDTGYQVEV | soluble
ATDMWLERAADVSWEAGAAITGTSERLDVQLDDDGDFHLLNDPGVGGGGSGGGGGGVFWDTPSPKVYPKGDTTPGVYRIMARGILGRYQAGVGVMHEGVFHTLWHTTRGAAIMSGEGRLTPYWGNVKEDRVTYGGPWKLDQKWNGVDDVQMIVVEPGKPAINVQTKPGIFKTAHGEIGAVSLDYPIGTSGSPIVNSNGEIIGLYGNGVILGNGAYVSAIVQGERVEEPVPEAYNPEMLKKRQLTVLDLHPGAGKTRRILPQIIKDAIQKRLRTAVLAPTRVVAAEMAEALRGLPVRYLTPAVQREHSGNEIVDVMCHATLTHRLMSPLRVPNYNLFVMDEAHFTDPASIAARGYIATRVEAGEAAAIFMTATPPGTSDPFPDTNSPVHDVSSEIPDRAWSSGFEWITDYAGKTVWFVASVKMSNEIAQCLQRAGKRVIQLNRKSYDTEYPKCKNGDWDFVITTDISEMGANFGASRVIDCRKSVKPTILDEGEGRVILSVPSAITSASAAQRRGRVGRNPSQIGDEYHYGGGTSEDDTMLAHWTEAKILLDNIHLPNGLVAQLYGPERDKTYTMDGEYRLRGEERKTFLELIKTADLPVWLAYKVASNGIQYNDRKWCFDGPRSNIILEDNNEVEIITRIGERKVLKPRWLDARVYSDHQSLKWFKDFAAGKR | soluble
MTNKREDVRNIAIIAHVDHGKTTLVDELLKQSGIFRENEHVDERAMDSNDIERERGITILAKNTAVDYKGTRINILDTPGHADFGGEVERIMKMVDGVVLVVDAYEGTMPQTRFVLKKALEQNLKPVVVVNKIDKPSARPEGVVDEVLDLFIELEANDEQLEFPVVYASAVNGTASLDPEKQDDNLQSLYETIIDYVPAPIDNSDEPLQFQVALLDYNDYVGRIGIGRVFRGKMRVGDNVSLIKLDGTVKNFRVTKIFGYFGLKRLEIEEAQAGDLIAVSGMEDINVGETVTPHDHQEALPVLRIDEPTLEMTFKVNNSPFAGREGDFVTARQIQERLNQQLETDVSLKVSNTDSPDTWVVAGRGELHLSILIENMRREGYELQVSKPQVIIKEIDGVMCEPFERVQCEVPQENAGAVIESLGARKGEMVDMTTTDNGLTRLIFNVPARGMIGYTTEFMSMTRGYGIINHTFEEFRPRIKAQIGGRRNGALISMDQGSASTYAILGLEDRGVNFMEPGTEVYEGMIVGEHNRENDLTVNITKTKHQTNVRSATKDQTQTMNRPRILTLEEALQFINDDELVVVTPESIRLRKKILNKNVREKEAKRIKQMMQENE | not soluble
MKLMKKNTDDGAKIYTPLTLKLYDWWVLGVSNRLAWGCPTKEHLLPHFLEHLGNNHLDIGVGTGFYLTHVPESSLISLMDLNEASLNAASTRAGESKIKHKISHDVFDPYPAALHGQFDSISMFYLLHCLPGNISTKSCVIRNAAQALTDDGTLYGATILGDGVVHNSFGQKLMRIYNQKGIFSNTKDSEEGLTHILSEHFENVKTKVKGTVVMFSASGKK | not soluble
RTGRELLDMCRASGHSVAGLMMRNELTWRGAAEIEQGLDRIWEVMQECVARGCGIGHPEADGDLPGPLKVRRRAPELYRALTQRAERTLSDPLSVMDWVNLYAMAVNEENAAGGRVVTAPTNGAAGIIPAVLHYYDRFVPAANRAGVHDFLLTAAAIGLLYKYNASLSGAEVGCQGEVGVACSMAAGALAAVQGGSVEQVENAAEIGMEHNLGLTCDPVGGLVQIPCIERNAMASVKAVNAARMALRGDGHHYVSLDSVIKTMRETGADMKTKYKETARGGLAVN | not soluble
GPGSMSFPKEWTDTWNLFDDRRSGSVTHSDVKHIIRSLGRRYTEAEFNELLHDIPDPIPYQSFVEIMQKPYNGPTEDDLRTALRAFDGNDSGQLKLSELITLLTSLGEKMPEAEVKQLLSEVHTNEDGRVNIDDLARFLCTPLPTTQPDIAELQKQLAGIS | soluble
MGSDKIHHHHHHMTLPATITHQEKLLTVDTTAHPFLKALGGHEGTDIFPLFMDPYNGLMVMRASFAPGLTLPLHFHTGTVHMYTISGCWYYTEYPGQKQTAGCYLYEPGGSIHQFNTPRDNEGQTEVIFMLSGCNVNFTQDGTYLGLSDAGVIKNWVDRAIREQDNGLRYIAAAVPTYAA | not soluble
MHIDNIENLSDREFDYIVVGGGSAGAAVAARLSEDPAVSVALVEAGPDDRGVPEVLQLDRWMELLESGYDWDYPIEPQENGNSFMRHARAKVMGGCSSHNSCIAFWAPREDLDEWEAKYGATGWNAEAAWPLYKRLETNEDAGPDAPHHGDSGPVHLMNVPPKDPTGVALLDACEQAGIPRAKFNTGTTVVNGANFFQINRRADGTRSSSSVSYIHPIVEQENFTLLTGLRARQLVFDADRRCTGVDIVDSAFGHTHRLTARNEVVLSTGAIDTPKLLMLSGIGPAAHLAEHGIEVLVDSPGVGEHLQDHPEGVVQFEAKQPMVAESTQWWEIGIFTPTEDGLDRPDLMMHYGSVPFDMNTLRHGYPTTENGFSLTPNVTHARSRGTVRLRSRDFRDKPMVDPRYFTDPEGHDMRVMVAGIRKAREIAAQPAMAEWTGRELSPGVEAQTDEELQDYIRKTHNTAYHPVGTVRMGAVEDEMSPLDPELRVKGVTGLRVADASVMPEHVTVNPNITVMMIGERCADLIRSARAGETTTADAELSAALA | soluble
MGSDKIHHHHHHMTDDQIHQTDWLQRGRDVLDIEAEGIRAVRDRLGPSFESALALLAGCRGRVVVTGLGKSGLVGRKLAATFSSTGSPAFFLHPVEGAHGDMGSLKADDVVIAISNSGETDELNAILPSLRAIGTPIIALTGRADSSLGRGADIVLDCGVPREACPLGLAPTASTTAVLALGDALAVCLIDWKSFTENDFLRYHPGGSLGQRLRLRVAELMHTEGIPVVNEEAVCEEAVLALDKGGFGAVALTDGGGRLTGILTDGDVRRAVLRGTYGPRVGVTHIMTRNPRFARQTQSVAELIDIMEQKAITVLPITDDDHRLVGLVHLHDLLGKGGVTFAG | not soluble
MDVRIRAIDERSYLNIISAIFKDLGLPQLIDRLVPVDRQCQTRTSDIVSLIILDILSGRQALVHLERWAHDIDWPKWIRPGPDPSWFNDDAIARHLDRLYEANIHQVLSSCLVQIDKKEGLSLRVFHADATDKTVYGAYESDSSDVLHITYGYNRHHRWQKPIGFGLIGNEDGIPFYGDVHDGNLSDKAWNPEVLSRIHEQFKQAKIDDEWMYVADSVAMTKETLAQTKAANAFLITRGPSSLRIVKTALSEADAQPDSAWSAPLRWPRKTAPRIGYGKRPRPMKAAPYG | not soluble
ADGQQGAPLNSPNTYDVTTWRIKAHPEVTAQSDIGAVINDIIADIKQRQTSPDARPGAAIIIPPGDYDLHTQVVVDVSYLTIAGFGHGFFSRSILDNSNPTGWQNLQPGASHIRVLTSPSAPQAFLVKRAGDPRLSGIVFRDFCLDGVGFTPGKNSYHNGKTGIEVASDNDSFHITGMGFVYLEHALIVRGADALRVNDNMIAECGNCVELTGAGQATIVSGNHMGAGPDGVTLLAENHEGLLVTGNNLFPRGRSLIEFTGCNRCSVTSNRLQGFYPGMLRLLNGCKENLITANHIRRTNEGYPPFIGRGNGLDDLYGVVHIAGDNNLISDNLFAYNVPPANIAPAGAQPTQILIAGGDANVVALNHVVSDVASQHVVLDASTTHSKVLDSGTASQITSYSSDTAIRPTP | soluble
QYSLLHVSDLFFLAQQAMPGVQVLDALTGKPVEGASVDASMRYSIDRSVHTLSPTDRYGRIDLPKSYNRFFPYTDGDRSYPVVSAYTYKQDQVDLSKKNERKYIVSTDRAIYRPGQKVHFFGQCDRIGYAVEDARAIGGSEVEVVLEDANSKEIGRLLCQADEMGRFSGSFDLPTGILNGLFGLRVGGDTYPFSVEEYKRPTFEVGLRSPDAAYAMGDTLRIRGEAKTFTGIGMRGATVNYRLSLTPYTRRWWGRPVADRVVQTGEAVVDES | not soluble
